Where a chain is given by its changes, count along the chain named.

B1: 58-H1L1 (antibody, V domains shown)
VH: QVQLVQSGAEVKKPGASVKVSCKASGYSFTGYYIHWVRQAPGQGLEWMGYISSYNAATSFNQKFKGRVTMTRDTSTSTVYMELSSLRSEDTAVYYCARTELRGPWFAYWGQGTLVTVSS
VL: DIQMTQSPSSLSASVGDRVTITCSASSSVSYMNWYQQKPGKAPKLLIYDTSKLASGVPSRFSGSGSGTDFTLTISSLQPEDFATYYCQQWSNNPLTFGQGTKLEIK
notes: humanized 58F9G10, VH v1 x VL v1
B2: 58-H3L1 (antibody, V domains shown)
VH: B1 VH with R38K, M48I, M70F, R72V, L83F
VL: B1 VL
notes: humanized 58F9G10, VH v3 x VL v1
B3: 58F9G10-XI (antibody, V domains shown)
VH: EVQLQQSGPELVKTGASVKISCKASGYSFTGYYIHWVKQSHGKSLEWIGYISCYNGATSFNQKFKGKATFTVDTSSSTAYMQFNSLTSEDSAVYYCARTELRGPWFAYWGQGTLVTVSA
VL: QTVLTQSPAIMSASPGEKVTMTCSASSSVSYMNWYQQKSGTSPKRWIYDTSKLASGVPARFSGSGSGTSYSLTISSMEAEDAATYYCQQWSNNPLTFGAGTKLELK
notes: also called 58F9G10 (chimeric); 58-XI
B4: 37B9C4-XI (antibody, V domains shown)
VH: EVNLEESGGGLVQPGGSMKLSCVASGFTFSDYWMNWVRQSPEKGLEWVAEIRLKSNNYATHYAESVKGRFTISRDDSKSSVYLQMNNLRAEDTGIYYCTRPLLWFRRYYAMDYWGQGTSVTVSS
VL: DIQMTQTTSSLSASLGDRITISCSASQGISNYLNWYQQKPDGTVKLLIYYTSSLHSGVPSRFSGSGSGTDYSLTISNLEPADIATYYCQQYSKLPFTFGSGTKLEIK
notes: also called 37B9C4 (chimeric); 37-XI
B5: 37-H1L1 (antibody, V domains shown)
VH: EVQLVESGGGLVQPGGSLRLSCAASGFTFSDYWMNWVRQAPGKGLEWVAEIRLKSNNYATHYAESVKGRFTISRDNAKNSLYLQMNSLRAEDTAVYYCARPLLWFRRYYAMDYWGQGTLVTVSS
VL: DIQMTQSPSSLSASVGDRVTITCSASQGISNYLNWYQQKPGKAPKLLIYYTSSLHSGVPSRFSGSGSGTDFTLTISSLQPEDFATYYCQQYSKLPFTFGQGTKLEIK
notes: humanized 37B9C4, VH v1 x VL v1; also called 37B9C4 (H1L1)
B6: 34-XI (antibody, V domains shown)
VH: EVHLVESGGDLVKPGGSLKLSCAASGFTFSSYGMSWVRQTPDKRLEWVATISSGGSYTYYPDSVKGRFTISRDNAKNTLNLQMSSLKSEDTAMYYCARQGGDAMDYWGQGTSVTVSS
VL: DIVLTQSPATLSVTPGDSVSLSCRASQSINNNLHWYQQKSHESPRLLIKYASQSISGIPSRFSGSGSGTDFTLSINSVETEDFGMYFCQQSNSRLTFGAGTKLELK
notes: also called 34D3H1 (chimeric)
B7: 34-H1L1 (antibody, V domains shown)
VH: EVQLVESGGGLVKPGGSLRLSCAASGFTFSSYGMSWVRQAPGKGLEWVSTISSGGSYTYYPDSVKGRFTISRDNAKNSLYLQMNSLRAEDTAVYYCARQGGDAMDYWGQGTLVTVSS
VL: DIQMTQSPSSLSASVGDRVTITCRASQSINNNLHWYQQKPGKAPKLLIYYASQSISGVPSRFSGSGSGTDFTLTISSLQPEDFATYYCQQSNSRLTFGGGTKVEIK
notes: humanized 34D3H1, VH v1 x VL v1
B8: 29B2C10 (chimeric) (antibody, V domains shown)
VH: EVQLQQSGPELVKPGASMKLSCKASGYSFTGYTMHWVKQSHGENLEWIGLINPYNGGTNYNQKFKGKATLTVDKSSSTAYMELLSLTSEDSAVYYCSRWGLRRAMDYWGQGTSVTVSS
VL: DIVMTQSQKFMSTSVGDRVSVTCKASQNVGSNVAWYQQKPGQSPKALIYSASYRYSGVPDRFTGNGSGTDFTLTISNVQSEDLAEYFCQQYYNSPWTFGGGTKLEIK
B9: 38A10E9A11 (chimeric) (antibody, V domains shown)
VH: QVQLQQSGAELARPGASVKMSCKASGYTFTTYTMHWVKQRPGQGLEWIGYINPSSGYTNYNQKFKDKATLTAGKSSSTAYMQLSSLTSEDSAVYYCASLRSRGYFDYWGRGTTLTVSS
VL: DIVMTQSQKFLSTSVGDRVSITCKASQNVGTAVAWYQQKPGQSPKLLIYSASNRYTGVPDRFTGSGSGTDFTLTISNMQSEDLAGYFCQQYSSYPYTFGGGTKLEIK
notes: also called 38A9E10A11
B10: 40A5B2 (chimeric) (antibody, V domains shown)
VH: EVQLQQSGPELVKPGASVKMSCKASGYTFTRNIMHWVKQKPGQGLEWIGYINPYNAGSKYNEKFKGKATLTSDISSSTAYMELSSLTSEDSAVYYCAREEVYYRYGAWFAYWGHGTLVTVSA
VL: DIVLTQSPASLAVSLGQRATISCRASQSVSTSSYSYMHWYQQKPGQPPKLLIKYASNLESGVPARFSGSGSGTDFTLNIHPVEEEDTATYYCQHSWEIPRTFGGGTKLEIK
B11: 21C3C11B3 (chimeric) (antibody, V domains shown)
VH: QVQLQQSGAELVRPGTSVKVSCKASGYAFINYLIEWIKQRPGQGLEWIGMINPGSGGTNYNEKFKDKATLTADKSSSTAYMQLSSLTSDDSAVYFCARNWDVWGQGTTLTVSS
VL: DVVMTQSPLSLPVSLGDQASVSCRSSQSLVHSTGNTYLHWYLQKPGQSPKLLIYKVSNRFSGVPDRFSGSGSGTDFTLKISRVEAEDLGVYFCSQSTHVPWTFGGGTKLEIK

The target in the first assay is T1, human G-protein-coupled receptor family C group 5 member D (GPRC5D) (human, UniProt Q9NZD1 1-345).
T1 construct: whole, on cells; also called human GPRC5D protein
T1 sequence (Q9NZD1 whole entry): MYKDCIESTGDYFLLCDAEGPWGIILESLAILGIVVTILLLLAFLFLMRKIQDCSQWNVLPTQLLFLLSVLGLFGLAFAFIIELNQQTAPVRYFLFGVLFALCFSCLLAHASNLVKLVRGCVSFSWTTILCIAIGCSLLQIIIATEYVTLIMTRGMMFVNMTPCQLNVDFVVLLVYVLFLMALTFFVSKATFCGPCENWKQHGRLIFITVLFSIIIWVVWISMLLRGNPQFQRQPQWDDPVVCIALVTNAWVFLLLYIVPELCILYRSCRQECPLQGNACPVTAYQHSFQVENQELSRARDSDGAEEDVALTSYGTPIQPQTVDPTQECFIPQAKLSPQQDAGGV
As to the kind of experiment: FACS, CHO-K1/GPRC5D.
B1 registered a Bottom of 15000, a LogEC50 of 0.252, a Span of 92800 and a Top of 108000.

B2 gave a Bottom of 9890, a LogEC50 of -0.192, a Span of 93800 and a Top of 104000.

B3: the Bottom turned out to be 6700, the LogEC50 was 0.292, the Span was determined as 121000 and the Top stood at 127000.

The next assay concerns the target T1, human G-protein-coupled receptor family …. Kind of assay: FACS, CHO-K1/GPRC5D. This is another data set of the same source.
On to B4, for which the Bottom was found to be 11700, the LogEC50 stood at 0.236, the Span was 177000 and the Top was determined as 188000.

B5 had a Bottom of 9600, a LogEC50 of 0.357, a Span of 169000 and a Top of 178000.

The next assay has the same target. Kind of assay: FACS, CHO-K1/human GPRC5D.
B1: the Bottom worked out at 275, the LogEC50 is 0.579, the Span worked out at 99200 and the Top was 99500.

Turning to B2, the Bottom turned out to be 75.4, the LogEC50 worked out at 0.612, the Span amounted to 104000 and the Top came to 104000.

As to B4, the Bottom turned out to be 793, the LogEC50 came out at 0.388, the Span stood at 113000 and the Top was 113000.

Consider B6, for which the Bottom was 689, the LogEC50 was 0.578, the Span is 117000 and the Top worked out at 118000.

Consider B3, for which the Bottom stood at 52.2, the LogEC50 was found to be 0.556, the Span turned out to be 107000 and the Top amounted to 107000.

For the molecule B7, the Bottom came to 171, the LogEC50 turned out to be 0.781, the Span was 119000 and the Top is 119000.

Turning to B5, the Bottom worked out at 523, the LogEC50 came out at 0.511, the Span worked out at 102000 and the Top was found to be 102000.

For a further assay the target is unchanged. As to the kind of experiment: FACS, CHO-K1/GPRC5D. This is another data set of the same source.
Molecule B6 came in with a Bottom of 16500, a LogEC50 of 0.495, a Span of 176000 and a Top of 192000.

As to B7, the Bottom amounted to 10900, the LogEC50 was determined as 0.591, the Span was determined as 186000 and the Top was determined as 197000.

A further assay has the same target. Kind of assay: FACS, NCI-H929 cells.
Turning to B1, the Bottom was 281, the LogEC50 is 0.165, the Span is 13200 and the Top was determined as 13500.

With B2, the Bottom is 276, the LogEC50 is 0.3, the Span turned out to be 13700 and the Top came out at 13900.

Molecule B4 registered a Bottom of 338, a LogEC50 of -0.0562, a Span of 13500 and a Top of 13800.

Turning to B6, the Bottom amounted to 181, the LogEC50 amounted to 0.759, the Span worked out at 18000 and the Top came to 18100.

As to B3, the Bottom turned out to be 261, the LogEC50 turned out to be 0.16, the Span amounted to 14500 and the Top was 14700.

As for B7, the Bottom is 199, the LogEC50 was 0.805, the Span came to 17700 and the Top turned out to be 17900.

In turn, B5 displayed a Bottom of 342, a LogEC50 of -0.199, a Span of 13200 and a Top of 13500.

The target is the same in another assay. As to the kind of experiment: FACS, CHO-K1/human GPRC5D, chimeric antibody. The procedure:
CHO—K1 cells stably expressed human GPRC5D, were harvested from flasks. 100 µl of 1×10⁶ cells/ml of cells were incubated with primary chimeric antibodies in 3-fold serial dilutions starting from 300 nM to 0.001 nM for 30 minutes on ice. After being washed with 200 µl of FACS buffer twice, cells were incubated with secondary antibody for 30 minutes on ice. Cells were washed with 200 µl of FACS buffer twice and transferred to BD Falcon 5 ml tube and analyzed by FACS.
Consider B8, for which the Bottom worked out at 4330, the LogEC50 came out at 0.342, the Span turned out to be 426000 and the Top was found to be 430000.

B4: the Bottom turned out to be 2080, the LogEC50 was 0.249, the Span was determined as 403000 and the Top worked out at 405000.

B9 registered a Bottom of 3020, a LogEC50 of 0.245, a Span of 384000 and a Top of 387000.

For the molecule B10, the Bottom was found to be 1490, the LogEC50 came to 0.344, the Span was 439000 and the Top was 440000.

B6 returned a Bottom of 3450, a LogEC50 of 0.521, a Span of 504000 and a Top of 508000.

With B3, the Bottom is -522, the LogEC50 was 0.36, the Span worked out at 415000 and the Top worked out at 415000.

The molecule B11 had a Bottom of 5770, a LogEC50 of 0.229, a Span of 398000 and a Top of 404000.

The values above are taken from patent US12281162 (LANOVA MEDICINES DEVELOPMENT, dated 2025).
